Measured values as given in patent publication US20120077731A1 (Ablynx, published 2012).
Values joined by “and” are separate entries in the source; they are usually repeats but may differ in a detail not shown here. Equal values may be shown once.

T1: Human membrane IL-6R on cells (human, UniProt P08887 20-468)
T1 sequence (looked up): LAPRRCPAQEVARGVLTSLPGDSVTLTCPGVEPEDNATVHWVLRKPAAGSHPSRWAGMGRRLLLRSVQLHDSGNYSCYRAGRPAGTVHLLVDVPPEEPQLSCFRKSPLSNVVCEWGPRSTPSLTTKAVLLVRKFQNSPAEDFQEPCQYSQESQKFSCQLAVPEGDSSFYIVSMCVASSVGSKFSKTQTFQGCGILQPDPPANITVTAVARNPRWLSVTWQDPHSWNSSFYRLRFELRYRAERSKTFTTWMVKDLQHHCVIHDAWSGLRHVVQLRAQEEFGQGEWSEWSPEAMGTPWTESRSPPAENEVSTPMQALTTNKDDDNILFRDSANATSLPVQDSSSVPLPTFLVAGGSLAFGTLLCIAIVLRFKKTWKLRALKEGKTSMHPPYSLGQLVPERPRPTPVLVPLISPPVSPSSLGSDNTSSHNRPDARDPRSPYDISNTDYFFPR

T2: Mouse IL-6R (mouse, UniProt P22272 20-364, limits assumed)
T2 construct: also called mouse sIL-6R
T2 sequence (looked up): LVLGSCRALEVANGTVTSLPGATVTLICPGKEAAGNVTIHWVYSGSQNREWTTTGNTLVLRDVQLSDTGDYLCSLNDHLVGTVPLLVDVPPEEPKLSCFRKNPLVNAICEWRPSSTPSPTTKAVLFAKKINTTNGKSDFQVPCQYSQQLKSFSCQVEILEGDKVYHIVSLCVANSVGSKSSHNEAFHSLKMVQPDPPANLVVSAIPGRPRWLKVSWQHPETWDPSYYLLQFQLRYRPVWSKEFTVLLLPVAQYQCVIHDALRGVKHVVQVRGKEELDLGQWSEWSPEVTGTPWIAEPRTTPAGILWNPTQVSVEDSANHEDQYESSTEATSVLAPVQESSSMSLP

T3: Human plasma sIL-6R (human, UniProt P08887 20-355, limits assumed)
T3 construct: also called plasma-derived human IL-6R
T3 sequence (looked up): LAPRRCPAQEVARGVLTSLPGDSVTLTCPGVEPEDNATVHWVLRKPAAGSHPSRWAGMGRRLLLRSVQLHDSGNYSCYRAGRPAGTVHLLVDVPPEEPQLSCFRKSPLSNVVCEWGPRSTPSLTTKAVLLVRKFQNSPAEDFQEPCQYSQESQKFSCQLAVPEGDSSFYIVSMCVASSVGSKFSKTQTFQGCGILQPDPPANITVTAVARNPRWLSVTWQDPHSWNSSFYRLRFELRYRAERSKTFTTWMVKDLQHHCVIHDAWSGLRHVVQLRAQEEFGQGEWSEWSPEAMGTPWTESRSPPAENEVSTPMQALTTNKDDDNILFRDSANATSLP

T4: Cyno IL-6R (cynomolgus monkey, UniProt A0A2K5WN54 60-396)
T4 construct: also called cynomolgus monkey IL-6R; recombinant cyno sIL-6R
T4 sequence: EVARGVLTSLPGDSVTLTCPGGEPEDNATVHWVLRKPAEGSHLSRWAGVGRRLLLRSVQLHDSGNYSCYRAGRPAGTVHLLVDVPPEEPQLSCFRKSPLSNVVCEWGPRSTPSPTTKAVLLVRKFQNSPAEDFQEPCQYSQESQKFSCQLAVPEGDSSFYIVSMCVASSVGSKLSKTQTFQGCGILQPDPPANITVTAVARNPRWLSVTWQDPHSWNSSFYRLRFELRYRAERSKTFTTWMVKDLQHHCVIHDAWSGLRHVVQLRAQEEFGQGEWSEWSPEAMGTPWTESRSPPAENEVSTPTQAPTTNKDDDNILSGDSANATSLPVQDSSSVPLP

T5: Cyno plasma sIL-6R (cynomolgus monkey, UniProt A0A2K5WN54 60-396)
T5 construct: also called cynomolgus sIL-6R
T5 sequence: T4 sequence

B1: Human soluble IL-6R (receptor, UniProt P08887 20-358, looked up)
chain: LAPRRCPAQEVARGVLTSLPGDSVTLTCPGVEPEDNATVHWVLRKPAAGSHPSRWAGMGRRLLLRSVQLHDSGNYSCYRAGRPAGTVHLLVDVPPEEPQLSCFRKSPLSNVVCEWGPRSTPSLTTKAVLLVRKFQNSPAEDFQEPCQYSQESQKFSCQLAVPEGDSSFYIVSMCVASSVGSKFSKTQTFQGCGILQPDPPANITVTAVARNPRWLSVTWQDPHSWNSSFYRLRFELRYRAERSKTFTTWMVKDLQHHCVIHDAWSGLRHVVQLRAQEEFGQGEWSEWSPEAMGTPWTESRSPPAENEVSTPMQALTTNKDDDNILFRDSANATSLPVQD
notes: Soluble recombinant form; biotinylated in some assays; also called hIL-6R; human IL-6R
B2: IL6R02 (VHH)
VHH: EVQLVESGGGLVQAGGSLRLSCAASGRTFSSYDMGWYRQAPGKEREFVAVISRSGSSTYYADSVKGRFTISRDNAKNTVYLQMNSLKPEDTAIYYCKAEVVAGDYDYWGQGTQVTVSS
notes: also called PMP30C11; not shown: C-terminal c-myc and (His)6 tags
B3: IL6R04 (VHH)
VHH: EVQLVESGGGLVQAGGSLRLSCAASGFTFDDYDIGWFRQAPGKEREGVSGISSSDGNTYYADSVKGRFTISSDNAKNTVYLQMNSLKPEDTAVYYCAAEPPDSSWYLDGSPEFFKYWGQGTQVTVSS
notes: also called PMP32C9; not shown: C-terminal c-myc and (His)6 tags
B4: Reference Fab (Fab, V domains shown)
VH: QVQLQESGPGLVRPSQTLSLTCTVSGYSITSDHAWSWVRQPPGRGLEWIGYISYSGITTYNPSLKSRVTMLRDTSKNQFSLRLSSVTAADTAVYYCARSLARTTAMDYWGQGSLVTVSS
VL: DIQMTQSPSSLSASVGDRVTITCRASQDISSYLNWYQQKPGKAPKLLIYYTSRLHSGVPSRFSGSGSGTDFTFTISSLQPEDIATYYCQQGNTLPYTFGQGTKVEIKR
notes: Built from RVLa and RVHf of EP 0628639; expressed in E. coli periplasm

Columns and labels:
PMP20A11 [1] = biological target: T6, PMP20A11; test: competition ELISA: IL6R20A11 (0.4 nM) pre-incubated with a series of recombinant sIL-6R; free IL6R20A11 captured on biotinylated human sIL-6R on neutravidin
T6 construct: also called IL6R20A11; IL6R300; not shown: c-myc and (His)6 tags

PMP20A11 [2] = biological target: T6, PMP20A11; test: competitive binding ELISA, 0.05 nM IL6R20A11 pre-incubated with sIL-6R, free Nanobody captured on sIL-6R
Human soluble IL-6R [3] = biological target: B1; test: competition for IL-6R, competitor reference Fab, summary table C-13
Human soluble IL-6R [4] = biological target: B1; test: Alphascreen, inhibition of bio-IL-6 binding to IL-6R
Procedure: (§1) Finally streptavidin donor beads were added and after 1 hour incubator the plate was read on the Envision microplate reader.

Human soluble IL-6R [5] = biological target: B1; test: Alphascreen, 100 nM Nanobody, 0.4 nM bio-IL-6R; competitor: reference Fab
Human soluble IL-6R [6] = biological target: B1; test: SPR Biacore 3000, IL-6R amine-coupled to CM5; second koff of IL6R02; the one that fits kon and Kd
Procedure: (§2) Nanobodies were injected at 5 different concentrations between 1 and 50 nM. Flow rate was 45 μl/min in all experiments. Association and dissociation phase were 3 and 10 min, respectively. The chip was regenerated using Glycine/HCl pH 1.5.

[7] = biological target: T1, Human membrane IL-6R on cells; test: cell-based or functional assay
Mouse IL-6R [8] = biological target: T2, Mouse IL-6R; test: ELISA: plate coated with 1 µg/ml mouse IL-6R, 500 nM Nanobody, anti-myc + anti-mouse-HRP
Procedure: Detection was performed with anti-myc and anti-mouse-HRP as first and second antibody respectively.

Human soluble IL-6R [9] = biological target: B1; test: inhibition of the IL-6/IL-6R interaction, summary table C-13
Procedure: as §1

[10] = biological target: T1, Human membrane IL-6R on cells; test: cell-based or functional assay; remark: listed apart in the source
Human soluble IL-6R [11] = biological target: B1; test: SPR Biacore 3000, IL-6R amine-coupled to CM5
Procedure: as §2

Human soluble IL-6R [12] = biological target: B1; test: summary table C-13 of Nanobody characteristics, Kd on IL-6R
Procedure: as §2

[13] = biological target: T1, Human membrane IL-6R on cells; test: cell-based or functional assay; remark: listed apart in the source
Human soluble IL-6R [14] = biological target: B1; test: Biacore off-rate, periplasmic extract
Human soluble IL-6R [15] = biological target: B1; test: Alphascreen IL-6/IL-6R competition with purified Nanobody; row EC50 of the table, axis [inhibitor], M; blocked ligand IL-6
Human plasma sIL-6R [16] = biological target: T3, Human plasma sIL-6R; test: plasma potency ELISA in human plasma at the EC95 of IL-6 (885 ng/mL); blocked ligand IL-6
[17] = biological target: T1, Human membrane IL-6R on cells; test: cell-based or functional assay; remark: listed apart in the source
Cyno IL-6R = biological target: T4, Cyno IL-6R; test: SPR Biacore 3000, cyno IL-6R amine-coupled to CM5
Procedure: Remaining reactive groups were inactivated. […] Each sample was injected for 4 min at a flow rate of 45 μl/min to allow for binding to chip-bound antigen. Next, binding buffer without Nanobody was sent over the chip at the same flow rate to allow for dissociation of bound Nanobody.

Human soluble IL-6R [18] = biological target: B1; test: Alphascreen IL-6/IL-6R competition (IL-6R 0.3 nM, bio-IL-6 3 nM); row EC50 of the fit table, axis [competitor], M; blocked ligand IL-6
Human soluble IL-6R [19] = biological target: B1; test: Biacore, binding to IL-6R (parent value)
Human plasma sIL-6R [20] = biological target: T3, Human plasma sIL-6R; test: plasma potency ELISA in human plasma at the EC50 of IL-6 (50 ng/mL); blocked ligand IL-6
Human plasma sIL-6R [21] = biological target: T3, Human plasma sIL-6R; test: plasma potency ELISA, human plasma, IL-6 at EC95 (885 ng/mL)
Human plasma sIL-6R [22] = biological target: T3, Human plasma sIL-6R; test: plasma potency ELISA, human plasma, IL-6 at EC50 (50 ng/mL)
Cyno plasma sIL-6R = biological target: T5, Cyno plasma sIL-6R; test: plasma potency ELISA, cyno plasma + human IL-6 50 ng/mL; sIL-6R captured on BN-12, bound IL-6 detected; blocked ligand IL-6
Human plasma sIL-6R [23] = biological target: T3, Human plasma sIL-6R; test: plasma potency ELISA, human plasma + human IL-6 50 ng/mL; sIL-6R captured on BN-12, bound IL-6 detected; blocked ligand IL-6
[24] = biological target: T1, Human membrane IL-6R on cells; test: cell-based or functional assay; remark: listed apart in the source
Human soluble IL-6R [25] = biological target: B1; test: Alphascreen, inhibition of bio-IL-6 binding to IL-6R; remark: listed apart in the source
Procedure: as §1

Mouse IL-6R [26] = biological target: T2, Mouse IL-6R; test: ELISA: plate coated with 1 µg/ml mouse IL-6R; concentration and detection of this control not told

Row | Binder | Ref Fab competition (%) (Human soluble IL-6R [3]) | IC50 (Human soluble IL-6R [4]) | Residual reference-Fab binding to IL-6R (%) (Human soluble IL-6R [5]) | IC50 (nM) XG-1 [7] | binding result (Mouse IL-6R [8]) | IC50 (Human soluble IL-6R [9]) | IC50 (nM), XG-1 cell proliferation [10] | Kd (Human soluble IL-6R [11]) | koff (Human soluble IL-6R [11]) | kon (Human soluble IL-6R [11]) | Kd (Human soluble IL-6R [12]) | IC50 (nM), TF1 cell proliferation [13] | koff (Human soluble IL-6R [14]) | other results
1 | B1 |  |  |  |  |  |  |  |  |  |  |  |  |  | IC50 (read off the curve) (PMP20A11 [1]): ~1 ng/mL; IC50 (PMP20A11 [2]): 0.03 nM
2 | B2 | 86% | 1.69 nM | 86% | 31 nM | no binding (tested: 500 nM) | 1.69 nM | 31 nM | 5.9 nM | 0.00294 s⁻¹ | 840000 M⁻¹ s⁻¹ | 5.9 nM | 94.7 nM | 0.00294 s⁻¹ | koff (Human soluble IL-6R [6]): 0.00495 s⁻¹
3 | B3 | 50% | 0.093 nM | 50% | 0.1 nM | no binding (tested: 500 nM) | 0.09 nM | 0.1 nM | 0.3 nM | 9.42e-05 s⁻¹ and 0.00015 s⁻¹ | 365000 M⁻¹ s⁻¹ | 0.3 nM | 0.4 nM | 0.00015 s⁻¹ | IC50 (Human soluble IL-6R [15]): 0.0568 nM; IC50 (nM) + HSA, XG-1 cell proliferation [10]: 0.1 nM; IC50 (read off the curve) (Human plasma sIL-6R [16]): ~0.4 nM; IC50 values (nM), XG-1 assay [17]: 0.1 nM; Kd (Cyno IL-6R): 171 nM; koff (Cyno IL-6R): 0.01 s⁻¹; kon (Cyno IL-6R): 58600 M⁻¹ s⁻¹; IC50 (Human soluble IL-6R [18]): 0.18 nM; Kd (Human soluble IL-6R [19]): 0.3 nM; IC50 (read off the curve) (Human plasma sIL-6R [20]): ~0.2 nM
4 | B4 |  |  |  |  |  |  | 6 nM |  |  |  |  | 9.2 nM |  | IC50 (Human plasma sIL-6R [21]): 8.47 nM; IC50 (Human plasma sIL-6R [22]): 0.55 nM; IC50 (read off the curve) (Cyno plasma sIL-6R): ~0.1 nM; IC50 (read off the curve) (Human plasma sIL-6R [23]): ~0.3 nM; IC50 (nM), TF-1 proliferation at 100 IU/mL IL-6 [24]: 6.26 nM; IC50 (Human soluble IL-6R [25]): 0.592 nM; binding result (Mouse IL-6R [26]): no binding (tested: not given)
